# Measured values taken from paper PMC3964825 (Biochemistry, 2013).
# “And” between values parts separate entries of the source, which are not always exact repeats. Equal entries are not always repeated.
# Tests used:
# native gel or EMSA = target: the molecule itself; experiment: native gel or EMSA
# native MS = target: the molecule itself; experiment: native MS
protein,measurement,setting,value
EZH2-EED heterodimer (FLAG-EZH2–6×HIS-EED) (complex) chain 1: not shown chain 2: not shown,stoichiometry N,native gel or EMSA,≤ 4
same,stoichiometry N,native MS,2 and 3
